Experiments:
[1] = tested on: colon crypt cells; experiment: Colon crypt assay; assay type: cell-based, mouse; conditions: bFGF 60 ng/ml, EBP 500 ng/ml
Method: Colons from five (BDF) mice were removed and crypts isolated using a non enzymatic (EDTA) extraction method. Briefly, colons are washed and allowed to sit for 20 min. in a solution of PBS containing 0.04% sodium hypochlorite. Crypts are isolated by incubating the tissue for 1 hour at 37° C. in a solution of PBS containing 3 mM EDTA and 0.5 mM DTT. Crypts are then subjected to pancreatin digestion (0.2% in PBS) for 90 min. at 37° C. in order to obtain a single cell suspension. Cells are washed in PBS, counted and viability determined by trypan blue exclusion (85% in this experiment). Cells are then plated in a top layer of 0.37% Sigma low melt agar onto a bottom layer of 0.5% agar. The RPMI media used in the agar includes the presence of 1×ITS (insulin, transferrin, and selenium, Gibco). Incubations were done in the presence of 1% fetal calf serum (FCS) and the indicated growth factors at the following concentration: TGFα, 50 ng/ml; bFGF, 60 ng/ml; EBP, 500 ng/ml. Control incubations lacked growth factors and/or FCS. Each of the various culture conditions was performed in triplicate and scored every several days.

[2] = tested on: EGF receptor; experiment: EGF receptor phosphorylation in LIM 2405 cells treated with EBP; assay type: cell-based, human
[3] = tested on: extracellular domain of the kit receptor; experiment: BIAcore binding to surfaces activated with kit receptor extracellular domain
Description: SDS-PAGE analysis of the fractions from this column confirmed that EBP was co-eluted with the receptor binding activity.

[4] = tested on: immobilized soluble extracellular domain of eck; experiment: Stability of eck binding activity of formulated EBP (BIAcore); assay type: physicochemical, human
Method: FIG. 7. Binding of CHO-derived EBP in various detergent formulations to immobilized eck receptor as measured by BIAcore. Purified EBP was diluted to 100 μg/ml in PBS in the presence or absence of detergent and incubated for 2 hrs. at 3° C. Protein samples were diluted to the concentrations indicated in the figure and tested for eck receptor binding.
Measuring the ability of EBP to bind to the immobilized soluble extracellular domain of eck using BIAcore, it was determined that dilute solutions of purified EBP rapidly lost the ability to bind to the eck receptor unless formulated with a protective agent such as a detergent. Recombinant CHO EBP diluted into PBS to 100 μg/ml and incubated for 2 hours at […] lost approximately 50% of its eck binding activity. […] (see FIG. 7).

[5] = tested on: bone marrow suspensions from BDF mice; experiment: Murine bone marrow colony formation (hematopoiesis); assay type: cell-based, mouse
Method: Unfractionated bone marrow suspensions from BDF mice were plated into serum free culture medium (Iscove's modified Dulbecco's medium) in 0.3% agarose and incubated at 37° C., 5% CO2 for ten days at a cell concentration of 1×10^5 /ml in 96 well plates. Total volume per […] was 50 μl . EBP and other growth factors were added in the amounts indicated and colonies were scored at the tenth day of incubation.

[6] = tested on: hepatocytes; experiment: 3H-thymidine incorporation in primary hepatocyte cultures; assay type: cell-based; conditions: EBP at 20 ng/ml, aFGF at 20 ng/ml, 24 to 48 hours, serum-free
Method: Hepatocytes were isolated by the in situ two step collagenase perfusion technique described by Seglen (Methods in Toxicol., Vol. 1A, 231-243 (1993). Briefly, the perfused livers were dispersed in ice cold Hank's buffer, filtered through a nylon mesh, and hepatocytes separated from nonparenchymal cells by repeated centrifugation at 50×g. The hepatocytes were determined to be greater than 85% viable by trypan blue exclusion. The hepatocytes were cultured on plates coated with rat tail collagen and plated in Williams E containing 5% FCS, 10^-7 M insulin, 10^-8 M dexamethason, glutamine, penicillin and streptomycin.
Cells were allowed to attach for 3-4 hours in serum containing media and then transferred to serum-free media. The appropriate concentrations of EBP or other growth factors were added and the cells were incubated for 24 to 48 hours in the presence of ^3 H-thymidine. After incubation, the extent of ^3 H-thymidine incorporation into cells was determined. The growth factors tested were keratinocyte growth factor (KGF) at 10 ng/ml, acidic FGF (aFGF) at 20 ng/ml, and EBP at 20 ng/ml. […] In this particular experiment, the serum free value was unusually high (about 3-fold).

B1: EBP: eck receptor binding protein, polypeptide ligand of the eck receptor (B61 gene product, SEQ. ID. NO. 1); source form not specified at place (protein)
chain: MEFLWAPLLGLCCSLAAADRHTVFWNSSNPKFRNEDYTIHVQLNDYVDIICPHYEDHSVADAAMEQYILYLVEHEEYQLCQPQSKDQVRWQCNRPSAKHGPEKLSEKFQRFTPFTLGKEFKEGHSYYYISKPIHQHEDRCLRLKVTVSGKITHSPQAHVNPQEKRLAADDPEVRVLHSIGHSAAPRLFPLAWTVLLLPLLLLQTP
Question: How did the “colon crypt cell clusters, overall observation” value [1] turn out when B1 was run?
Answer: The value was “occasional large clusters”.

Question: What about the “phosphorylation of the EGF receptor” value [2] of the same molecule?
Answer: The value was “does not result in spurious phosphorylation”.

Question: And the “binding to BIAcore surfaces activated with the extracellular domain of the kit receptor” value [3]?
Answer: The value was “did not bind”.

Question: And the “loss of eck binding activity when formulated in detergent” value ([4]; 1 mM CHAPS, 0.1% NP-40, 0.1% tween 20, 0.1% triton-X 100, or 0.1% tween 80)?
Answer: The value was “loss of activity can be avoided”.

Question: What about the “stability of eck binding activity” value ([4]; 2-5 mg/ml in detergent solutions, 3° C.) of the same molecule?
Answer: The value was “stable for at least one week”.

Question: What about the “stability of eck binding activity” value ([4]; 10-500 μg/ml, stored at -20° C. or multiple freeze thaw cycles) of the same molecule?
Answer: The value was “will lose activity”.

Question: What about the “loss of eck binding activity when incubated with protein carriers” value ([4]; diluted EBP with carriers such as fetal calf serum) of the same molecule?
Answer: Its value is “can also be avoided”.

Question: And the “stimulation of CFU-M or BFU-E/CFU-E” value ([5]; EBP alone)?
Answer: The value was “no stimulation”.

Question: And the “potentiation of murine IL-3 dependent CFU-C formation compared to IL-3 alone” value ([5]; EBP at 1 μg/ml with murine IL-3, colonies scored day 10)?
Answer: The value was “about 2 fold”.

Question: And the “amount of 3H-thymidine incorporation stimulated” value [6]?
Answer: Its value is “about the same as that induced by aFGF”.
